# B1: HESX1 (parent)
# chain: ENKPSTCSFSIERILGLDQKKDCV
# B2: ZC3H15 (parent)
# chain: RKADFKAGKALVISGREVFEFRPE
# Variants of: B1
# Test: protein stability index of a GFP-peptide fusion (GPS, HEK-293T) (PSI 1-6); higher = more stable
# Conditions: c terminus: a fixed tail appended
# 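Also: lentivirally expressed fusions sorted by FACS into six bins by GFP to DsRed ratio, PSI derived from sequencing read proportions per bin multiplied by bin number.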
row,Variant,protein stability index
1,N2D,2.94
2,N2I,2.32
3,N2H,2.57
4,N2M,2.53
5,N2R,2.88
6,N2F,1.97
7,N2P,2.82
8,N2C,2.57
9,N2G,2.49
10,N2E,3.52
11,N2L,2.79
12,N2Q,2.93
13,N2K,3.37
14,N2A,2.15
15,E1G,2.32
16,E1L,2.13
17,E1P,2.79

row,Variant,protein stability index
1,E1C,2.27
2,E1M,2.45
3,E1H,2.73
4,E1S,2.37
5,E1A,2.61
6,E1D,3.29
7,E1F,1.92
8,E1K,1.68
9,E1V,2.32
10,E1Q,2.28
11,E1N,2.77
12,E1Y,1.95
13,E1R,2.79
14,E1T,2.85
15,E1I,2.68
16,E1W,2.37

# Variants of: B2
# Test: as above
# Conditions: c terminus: a fixed tail appended
row,Variant,protein stability index
1,R22S,3.29
2,R22Y,2.84
3,R22I,2.81
4,G15T,2.93
5,G15M,2.04
6,G15P,3.37
7,G15V,2.06
8,G15L,1.81
9,P23L,1.61
10,P23I,1.35
11,P23F,2.27
12,P23T,3.17
13,P23G,3.18
14,P23Y,1.9
15,K6N,3.22
16,K6C,2.79
17,K6F,1.79
18,K6S,2.82
19,K6G,2.4
20,L11A,3.06
21,L11H,3.36
22,L11I,2.72
23,L11W,2.55

row,Variant,protein stability index
1,L11G,3.46
2,L11Q,3.66
3,K2Y,2
4,K2A,3.43
5,K2S,3.02
6,K2T,3.06
7,K2G,3.3
8,K2F,2.06
9,A3G,3.13
10,A3T,3.24
11,A3K,3.12
12,A3M,2.75
13,K9W,1.87
14,K9L,1.99
15,K9D,3.18
16,K9H,2.93
17,K9F,1.7
18,E24D,3.11
19,E24L,1.9
20,E24N,2.84
21,E24W,1.84
22,E24P,2.44
23,E24V,2

row,Variant,protein stability index
1,S14F,1.23
2,S14R,2.56
3,S14K,3.32
4,S14G,3.11
5,R1V,2.02
6,R1L,2.43
7,R1A,3.21
8,R1C,1.91
9,R1D,3.7
10,R1G,2.95
11,G8N,3.3
12,G8E,2.99
13,G8C,2.14
14,G8M,2.59
15,G8A,2.94
16,G8Y,1.74
17,G8T,2.78
18,V18Y,2.74
19,V18C,2.95
20,V18L,2.72
21,V18D,3.69
22,V18F,2.68
23,A7E,2.86

row,Variant,protein stability index
1,A7Q,2.93
2,A7S,3.26
3,A7K,3.67
4,A7N,3.11
5,V12T,2.68
6,V12D,4.03
7,V12R,3.31
8,V12E,3.49
9,V12K,2.91
10,V12P,3.82
11,V12H,3.52
12,V12F,2.39
13,F5C,3.55
14,F5Y,3.16
15,F5L,3.93
16,F5R,3.76
17,F5V,3.6
18,F21V,3.5
19,F21H,3.57
20,F21P,3.69
21,F21S,3.91
22,F21D,4.04
23,F21T,3.73

row,Variant,protein stability index
1,F21Q,4.23
2,A10Q,3.17
3,A10E,2.97
4,A10W,2.97
5,A10P,3.73
6,F19T,3.7
7,F19I,3.51
8,F19W,2.43
9,F19D,4.68
10,F19L,3.33
11,F19S,3.51
12,F19A,4.01
13,R16I,1.92
14,R16V,1.91
15,R16N,3.63
16,R16C,1.89
17,R16S,3.21
18,R16F,1.65
19,E20I,1.71
20,E20V,2.34
21,E20T,2.73
22,E20S,2.1
23,E20H,2.13

row,Variant,protein stability index
1,E20P,2.62
2,D4E,2.64
3,D4Y,2.12
4,D4G,2.42
5,D4R,2.55
6,D4C,1.79
7,E17M,1.14
8,E17Q,1.96
9,E17G,2.3
10,E17R,2.67
11,E17L,2.04
12,E17A,1.47
13,I13R,3.89
14,I13G,4
15,I13Y,2.77
16,I13W,2.8
17,I13N,3.95
18,I13D,4.17
19,I13P,3.48

# From the supplement of paper PMC10567573
